A short description of the data set: yeast display, Sf9 membrane polyspecificity reagent, FACS + sequencing; frameworks hold sequencing errors. The procedure, abridged: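 Galactose induction of a Saccharomyces cerevisiae BJ5465 synthetic nanobody display library ran 36–48 hours. The cells were then stained for 1 hour at 4 °C with 10% biotinylated, detergent-solubilized Sf9 membrane reagent, pulled down on streptavidin microbeads and FACS-sorted into low and high (top ~1%) gates on expression and reagent-binding fluorescence. Labels for polyreactivity follow the gate of origin.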
As to “QVQLVESGGGVVQAGGSLRLSCAASGFTFVYNAMGWYRQAPGKEREFVAAISGRGGSTYYADSVKGRFTISRDNAKNTVYLQMNSLKPEDTAVYYCATTYSWYYVPYKTHIYYYWGQGTQVTVSS”, the “polyreactivity (PSR sort gate)” value is given as “low polyreactivity”. Under “QVQLVESGGGLVQAGGSLRLSCAASGSTFYRYAMGWYRQAPGKERELVAAISWDGGRTYYADSVKGRFTISRDNAKNTVYLQMNSLKPEDTAVYYCNARSSQYLGRYDYWGQGTQVTVSS” stands “high polyreactivity”.

For the sequence “QVQLVESGGGLVQAGGSLRLSCAASGRIFWYNAMGWSRQAPGKESELVAAISWRGSRTYYADSVKGRFTISRDNAKNTVYLQMNSLKPEDTAVYYCAADPDVYAYYGYDYWGQGTQVTVSS”, the “polyreactivity (PSR sort gate)” value is “high polyreactivity”.

For the sequence “QVQLVESGGGLVKAGGSLRLSCAASGSTFPYYAMGWYRQAPGTEREFVAAISSSGGSTYYADSVKGRFTISRDNAKNTVYLQMNSLKPEDTAVYYFAAQGARRNYYRYGTYTNRRYDYWGQGTQVTVSS”, the “polyreactivity (PSR sort gate)” value is reported as “high polyreactivity”.

Turning to “QVQLVESGGGLVQAGGSLRLSCAASGRTFRYKAMGWYRQAPGKERELVAAITYSGGITYYADSVKGRFTISRDNAKNTVYLQMNSLKPEDTAVYYCAADDPYRTTYEYDYWGQGTQVTVSS”, the “polyreactivity (PSR sort gate)” value is given as “low polyreactivity”.

On to “QVQLVESGGGLVQAGGSLRLSCAASGYTFGFYAMGWYRQAPGKERELVAAISSSGVSTSYADSVKGRFTISRDNAKNTVYLHMNSLKPEDNAVYYCNAPSYYYAYDYWGQGTQVTVSS”, for which the “polyreactivity (PSR sort gate)” value is listed as “high polyreactivity”. In the case of “QVQLVESGGGLVQAGGSLRLSCAASGSIYSTYAMGWYRQAPGKERELVAAITSDGTYADSVKGRFTISRDNARNTVYLQMNSLKPEDTAVYYCAAYYPYTRHGDYWGQGTQVTVSS”, the “polyreactivity (PSR sort gate)” value is reported as “low polyreactivity”. For the sequence “QVQLVESGGGLVQAGGSLRLSCAASGIIFFSNAMGWYRQAPGKERELVAAIDDSDGVTYYADSVKGRFTISRDNAKNTVYLQMNSLKPEDTAVYYCAAVDGWTYTGSDYWGDGTQVTVSS”, the “polyreactivity (PSR sort gate)” value is “low polyreactivity”. Under “QVQLVESGGGLVQAGGSLRLSCAASGGTFYRYAMGWYRQAPGKERELVAAISSSGGSTYYADSVKGRFTISRNNAKNTVYLQMNSLKPEDTAVYYCAAYSFQSHNFDYWGQGTQVTVSS” stands “high polyreactivity”; under “QVQLVESGGGLVQAGGSLRLSCAASGFIFQRNAMGWYRQAPGKERELVAAIRGTGGSTYYADSVKGRFTISRDNAKNTVYLQMNSLKPEDTAVYYCNRLSSYHMDYWGQGTQVTVSS”, “high polyreactivity”. Consider “QVQLEESGGGLVQAGGSLRLSCAASGFTFSRNAMGWYRKAPGKERQLVARISSRGGSTYYADSVKGRFTISRDNAKKTVYLQMNSLKPEDTAVYYCARDPVGTTAARYNYWGQGTQVTVSS”, for which the “polyreactivity (PSR sort gate)” value is “high polyreactivity”. Then “QVQLVESGGGLVQAGGSLRLSCAASGRIFVANAMGWYRQAPGKERELVAAISRRGGRTYYADSVKGRFTISRDNAKNTVYLQMNSLKPEDTAVYYCARVPTRAEDVAGWTGMDYWGQGTQVTVSS”, with “high polyreactivity”; and “QVQLVESGGGLVQAGGSLRLSCAASGLTFVDNAMGWYRQAPGKERELVAAISYNGGSTYYADSVKGRFTISRDNAKNTVYFQINSLKPEDTAVYYCAADISVGRYVDMDYWGQGTKVTVSS”, with “low polyreactivity”. Turning to “QVQLVESGGGLVQAGGSLRLSCAASGLIFGPYAMGWYRQAPGKERELDAAITSSGGSTYNADSVKGRFTISRDNAKKSVYLQMNSLKPEDTAVYYCAARGSPRYYARYNYWGQGTQVTVSS”, the “polyreactivity (PSR sort gate)” value is “low polyreactivity”. Then “QVQLVESGGGLVQAGGSLRISCAASGRILYLNAMGWYRQAPGIEREFVAAISKSGGTTYYADSVKGRFTISRDKAKHTDYLQMNSLKPEDTAVFYCAVDIVRCGRDSWGQGTQVTVSS”, with “low polyreactivity”; and “QVQLVESGGGLVQAGGSLRLSCAASGITFTSNTLGWYRQAPGKERELVAAISKSGGSTYYADSVKGRFTISRDNAKNTVYLQMNSLKPEDTAVYYCAKDSDYYRRDVTVDYWGQGTQVTVSS”, with “low polyreactivity”; and “QVQLVESGGGLVQAGGSLRLSCAASGRTFRAYAMGWYRQAPGKERELVAAITSGGSTYADSVKGRFTISRDNAKNTVYLQMNSLKPEDTAVYYCAADGYKLFYSKFRYVQYGYWGQGTQVTVSS”, with “high polyreactivity”.

For “QVQLVESGGGLVQAGGSLRLSCAASGRTFRYYTMGWYRQAPGKEREFVAAISSTGGTYYADSVKGRFTISRDNAKNTVYLQMNSLKPEDTAVYYCNADTIYYAGDFRYDYWGQGTQVTVSS”, the “polyreactivity (PSR sort gate)” value is “low polyreactivity”. For “QVQLVESGGGLVQAGGSLRLSCAASGFTFSRYAMGWYRQAPGTERELVAAITSRGGSTYYADSVKGRFTISRDNAKNTVYLQMNSLKPEDTAVYYCAASGRNRKDGLYEYYYWGQGTQVTVSS”, the “polyreactivity (PSR sort gate)” value is “high polyreactivity”. Under “QVQLVESGGGLVQAGGSLRLSWAASGRIIHYNVMGWYRQPPGKERDLVAAIRGGGRSTYYADSVKGRFTISRDNAKNTVYLQMNSLKPEDTAVYYCAKSLSQNTYYHQGYYDDNYWGQGTQVTVSS” stands “low polyreactivity”. With “QVQLVESGGGIVQAGGSLRLSCAASGSTFYVYALGWYRQAPGKERELVAAINFNGGGTYYADSVKGRFTISRDNAKNTVYLQMNRLKPEDTAVYYCNAEDDYTYDRSFGGYKYDYWGQGTQVTVSS”, the “polyreactivity (PSR sort gate)” value is listed as “low polyreactivity”.

Regarding “HFQLVESGGGLVQAGGSLRLSCAASGSSYSNYAMGWYRQAPGKEREMVAAISSSGSTYYADSVKGRFTISRDNAKNTVYLQLHRLKPEDTAVYYCAAGKDRRTSRYRYDSWGQGTQVTVSS”, the “polyreactivity (PSR sort gate)” value was “high polyreactivity”.

Regarding “QVQLVESGRGLVQAGGSLRLSCAATGLTFNQYAMGWYRQAPGKERELVAAITRVGRTYYADSVKGRFTISRDNAKNSVYLQMNSLKPEDTAVYYWGYPDVAERRGSYYWGQGTQVTVSS”, the “polyreactivity (PSR sort gate)” value is “high polyreactivity”.

Consider “QVQLVESGGGLVQAGGSLRLSCAASGRSFVLNAMGWYRQAPGKDRELVAAISSGGSTNYADSVKWRFTISRDNAKNTDYLQMNSLKPEDTAVYYCAGQDVNEYSAYYYWGQGTQVTGSS”, for which the “polyreactivity (PSR sort gate)” value was “low polyreactivity”. Then “QVQLVESVGGLVQAGGSLRLSCAASGSTFAGYAMGWYRQAPGKERELVATITYSGGSTYYADSVKGRFTISRDNAKNTVYLQMNSLKPEDTEVYYCAKKASYWWGYEYWGQGTQVTVSS”, with “low polyreactivity”. Then “QVQLEESGGGLVQAGGSLRLSCAASGRIFGGNAMGWYRQAPGKERELVAAINSSGGRTYYADSLKGRFTISRDNAKYTVYLQMNSLKTEDTAVYYCSARVVGNWYDYWGQGTQVTVSS”, with “high polyreactivity”; and “QVQLVESGVVLDQAGGILRLSCAASGFIFARYDMGWYRQAPGKERELVATISYTGGRTYYADSVKGRFTISRDNAKNTVYLQMNSLKPEDTAVYYCAAVVQSSEPVEYDYWGQGTQVTVSS”, with “high polyreactivity”. On to “QVQLQESGDGLVQAVGSLRLSCAASGYISGYYNMGWYRQAPGKERELVAGIDAFGSSTNYADCVKGRFTISRDNAKNTVYLEMNSLKPEDTAVYYFAARPYGDRLFSYWGQGTQVTVSS”, for which the “polyreactivity (PSR sort gate)” value is recorded as “low polyreactivity”. Then “QVQLVESGGGLVQAGGSLRLSSAASGRIFYGYAMGWYRQAPGKERELVAGISKRGGSTRYADSVKGRFTISRDNAKNTVYLHMNSLKPEDTAVYYCNRLPYLHYAGRLTNYDYWGQGTQVTVSS”, with “high polyreactivity”. Then “QVQLVESGGGLVQAGGSLRLSCAASGRTFTIYARGWYRQAPGKERELVAAIRRTGVSTYYADSVKGRFTISRDYAKNTVYLQMNSLKPEDTAVYYCAARQYSYLRLWWYEYWGQGTQVTVSS”, with “high polyreactivity”; and “QVQLVESGGGLVQAGGSLRLSCAASGLIFGYYAMGWYRQAPGKEREFVAAIDGSDGTTYYADSVKGRFTISRDNAKNTVYLQMTSQKPEDTAVYYCNADSSSYSSDLGYDYWGQGTQVTVSS”, with “low polyreactivity”; and “QVQLVESGGGLVQAGGSLRLSCAASGIILRYYAMGWYRQAPGKERELVAAITRGGSTNYADSVKGRFTISRDNAKNTVYLQMNSLKPEDTAVYYCAADVVFWFSNVAWGDFGYWGQGTQVTVSS”, with “low polyreactivity”. Regarding “QVQLVESGRGLFQAGGSLRISCAPSGSNFGYYTMGWYRQAPGKDRELVAAITWSGGSTYYADSVKGRFTISRDNAKNTDYLQMYSLKPEDTAVYYCAADGFYYRNWGRIRYYYWGQGTQVTVSS”, the “polyreactivity (PSR sort gate)” value is “low polyreactivity”. Then “QLQLVESGGGLVQAGGSLRLSCAASGIIFRYNTKGSYIQAPGKESELVAAIRTTGGSTYYADSVKGRFTISRDNAKNTVYLQMNSLKPEDPAVYYCAAVGFGRQGQEDYWGHGTQVTVSS”, with “low polyreactivity”; and “QVQLVESGGGLVQAGGSLLISCAASGRTLDFNVMGWYRQAPGKERELVAAITWSGGSTYYADSVKGRFTISRDNAKNTVYLQMNSLKPEDTAVYYCAKDRWYWARRYDYWGQGTQVTVSS”, with “high polyreactivity”. Under “QVQLVESGGGLVQAGGSLRLSCAASGSTFSRNAMGWYRQAPGKERELVAAISRRGGSTYYADSVKGRFTISRDNAKNTVYLQMNSLKPEDTAVYYCNRDSSYKNNYDYWGQGTQVTVSS” stands “high polyreactivity”. Under “QVQLVESGGGLVQAGGSLRLSCAASGSIFNGNDMGWYRQAPGKERELVASITSNGGRTYYADSVKGRVTISRDNAKNTVYLQMNSLKPEDTAVYYCAAGYYILYIWKFDYWGQGTQVTVSS” stands “high polyreactivity”. On to “QVQLVESVGGLVQAGGSLRLSCAASGRTFRAYSMGSYRQAPGKETELVAAIRSGTSTNYADSVKGRFTISRDNAKNTVYLQMNSLKPEDTAVYYCAARWWYYIGGRDYWGHGTQVTVSS”, for which the “polyreactivity (PSR sort gate)” value was “high polyreactivity”. With “QVQLVESGGGLVQAGGSLRLSCAASGSTFLGNAMGWYRQAPGKERELVAGITSGGTTNFADSVKGRFTISRDNAKNTVYLQMNSLKPEDTAVYYCNADVWIGQRLDPGYDFDYWGQGTQVTVSS”, the “polyreactivity (PSR sort gate)” value is given as “low polyreactivity”. Then “QVQLVESGGGLVQAGGSLRLSCAASGRIFLYYAMGWYRQAPGKERELVATISSGGSTTYADSVKGRFTISRDNAKNTVYLQMNSLKPEDTAVYYCATQVPGYSGRYDYWGQGTQVTVSS”, with “low polyreactivity”.

The values above are taken from the nanobody polyreactivity screen of Harvey et al. (2022).
